Laboratory results published in US20090208476A1 (published 2009).
Where no end group is shown, it is not given here.

How the values were obtained:
[1] = target: T1, Plasmodium falciparum MSP1-19 (C-terminal fragment of merozoite surface protein 1) (Plasmodium falciparum, UniProt Q8I0U8 1607-1699); assay: SPR, MSP1-19 immobilised on CM5 chip
T1 construct: domain: MSP1-19; also called Pf MSP1-19; PfMSP1-19
T1 sequence: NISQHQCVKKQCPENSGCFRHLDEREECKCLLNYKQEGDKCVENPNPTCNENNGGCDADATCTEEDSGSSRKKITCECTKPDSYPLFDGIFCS

CD4 = target: T2, CD4 (UniProt P01730 26-396); assay: SPR, CD4 immobilised on CM5 chip, equilibrium fit Req=Rmax/(1+(Kd/C))
T2 construct: Bought protein; also called CD4 (Protein Sciences Corp.)

[2] = target: T3, DC-SIGN (DC-specific intercellular adhesion molecule 3-grabbing nonintegrin) (UniProt Q9NNX6 62-404, limits assumed); assay: SPR, DC-SIGN immobilised on CM5 chip, equilibrium fit Req=Rmax/(1+(Kd/C))
T3 sequence (looked up): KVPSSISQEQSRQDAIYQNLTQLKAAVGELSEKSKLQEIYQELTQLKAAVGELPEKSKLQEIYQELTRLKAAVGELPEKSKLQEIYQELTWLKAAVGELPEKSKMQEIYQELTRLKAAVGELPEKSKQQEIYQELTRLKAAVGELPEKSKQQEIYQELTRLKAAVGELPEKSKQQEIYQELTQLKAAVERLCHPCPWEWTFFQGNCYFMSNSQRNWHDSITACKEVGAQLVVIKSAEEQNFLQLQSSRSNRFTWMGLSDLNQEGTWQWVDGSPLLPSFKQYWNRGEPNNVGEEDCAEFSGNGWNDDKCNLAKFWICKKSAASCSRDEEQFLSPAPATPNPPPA

B1: GST-Azu 36-89 (GST fused to azurin amino acids 36 to 89) (other)
chain: {GST}-PGNLPKNVMGHNWVLSTAADMQGVVTDGMASGLDKDYLKPDDSRVIAHTKLIGS
modifications: also: GST fusion, vector linker residues not given here
notes: also called pGST-azu 36-89 product; not shown: glutathione S-transferase from the commercial vector pGEX-5X
**Q.** B1 was tested. Which Kd [1] did it give?
**A.** 20.9 nM

B2: GST-Azu 36-128 (GST fused to azurin amino acids 36 to 128) (other)
chain: PGNLPKNVMGHNWVLSTAADMQGVVTDGMASGLDKDYLKPDDSRVIAHTKLIGSGEKDSVTFDVSKLKEGEQYMFFCTFPGHSALMKGTLTLK
notes: The azurin fragment was cloned into the BamHI/EcoRI sites of pGEX-5X; not shown: glutathione S-transferase from the commercial vector pGEX-5X
**Q.** Which results are given for B2?
**A.** Kd [1]: 24.5 nM; Kd (CD4): 0.34 nM

B3: GST-Azu 88-113 (GST fused to azurin amino acids 88 to 113) (other)
chain: {GST}-GSGEKDSVTFDVSKLKEGEQYMFFCT
modifications: also: GST fusion, vector linker residues not given here
notes: not shown: glutathione S-transferase from the commercial vector pGEX-5X
**Q.** Which Kd [2] does the source give for B3 here?
**A.** 5.98 nM
